For one molecule, Kd results are on record in PMC11998487 (2025).

The assay deals with T1, EV71-VP1-His (enterovirus 71 (EV71), UniProt Q66478 566-862, RED-tris-NTA dye on the His tag (in the MST only)).
T1 chain: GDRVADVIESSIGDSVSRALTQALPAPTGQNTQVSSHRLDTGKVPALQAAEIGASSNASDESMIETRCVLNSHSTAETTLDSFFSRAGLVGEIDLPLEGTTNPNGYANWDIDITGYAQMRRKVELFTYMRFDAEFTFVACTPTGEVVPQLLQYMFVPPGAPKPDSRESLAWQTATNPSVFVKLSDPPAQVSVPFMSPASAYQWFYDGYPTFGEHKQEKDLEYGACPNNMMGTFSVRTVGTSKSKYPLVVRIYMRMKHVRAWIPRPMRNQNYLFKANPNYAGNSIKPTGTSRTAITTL
As to the kind of experiment: MST.

B1: ZYG11B 1–58-GST (domain or fragment)
chain: MPEDQAGAAMEEASPYSLLDICLNFLTTHLEKFCSARQDGTLCLQEPGVFPQEVADRL
Regarding B1, the Kd was determined as 5.55 µM.
